# Assay results reported in paper PMC12435690, “KYLO-0603, a novel liver-targeting, thyroid hormone receptor-β agonist for the inhibition of MASH progression” (PLOS One, 2025).
# Columns and labels:
# in vitro = settings: Sprague-Dawley, rat, plasma
# Protocol: (§1) We evaluated the metabolic stability of Kylo-0603 in the plasma of CD-1 mice, Sprague–Dawley (SD) rats, beagle dogs, cynomolgus monkeys, and humans. The plasma from the five species was mixed with Kylo-0603 (2 μM) and incubated at 37°C in a thermostatic water tank. The plasma concentrations of Kylo-0603 were monitored via LC-MS/MS at 0, 10, 30, 60, and 120 min.
# [1] = Metabolic stability in plasma (humans); settings: human
# Protocol: as §1
# [2] = Metabolic stability in plasma (SD rats); settings: SD rat plasma
# Protocol: as §1
# [3] = Metabolic stability in plasma (CD-1 mice)
# Protocol: as §1
structure (smiles),measurement,setting,value
CC(=O)N[C@H]1[C@H](OCCCCCCNC(=O)CCOCC(COCCC(=O)NCCCCCCO[C@@H]2O[C@H](CO)[C@H](O)[C@H](O)[C@H]2NC(C)=O)(COCCC(=O)NCCCCCCO[C@@H]2O[C@H](CO)[C@H](O)[C@H](O)[C@H]2NC(C)=O)NC(=O)CCCCCNC(=O)COc2cc(C)c(Cc3ccc(O)c(C(C)C)c3)c(C)c2)O[C@H](CO)[C@H](O)[C@@H]1O [Kylo-0603],half-life at 2 μM,in vitro,> 6.21 h
same,plasma stability,[1],stable
same,plasma stability,[2],stable
same,plasma stability,[3],stable
